In patent US20200407447A1 (CEINGEBIOTECNOLOGIE AVANZATE FRANCO SALVATORE SCARL, published 2020):
Each block holds one binder with its values, some of them ahead of it.

Assays:
[1] = biological target: T1, human LAG-3 on activated hPBMCs (human, UniProt P18627 23-525); assay: cell ELISA on activated hPBMCs (apparent Kd, legend paragraph 26)
T1 construct: whole, on cells; also called cognate receptor expressed on hPBMCs
T1 sequence (looked up): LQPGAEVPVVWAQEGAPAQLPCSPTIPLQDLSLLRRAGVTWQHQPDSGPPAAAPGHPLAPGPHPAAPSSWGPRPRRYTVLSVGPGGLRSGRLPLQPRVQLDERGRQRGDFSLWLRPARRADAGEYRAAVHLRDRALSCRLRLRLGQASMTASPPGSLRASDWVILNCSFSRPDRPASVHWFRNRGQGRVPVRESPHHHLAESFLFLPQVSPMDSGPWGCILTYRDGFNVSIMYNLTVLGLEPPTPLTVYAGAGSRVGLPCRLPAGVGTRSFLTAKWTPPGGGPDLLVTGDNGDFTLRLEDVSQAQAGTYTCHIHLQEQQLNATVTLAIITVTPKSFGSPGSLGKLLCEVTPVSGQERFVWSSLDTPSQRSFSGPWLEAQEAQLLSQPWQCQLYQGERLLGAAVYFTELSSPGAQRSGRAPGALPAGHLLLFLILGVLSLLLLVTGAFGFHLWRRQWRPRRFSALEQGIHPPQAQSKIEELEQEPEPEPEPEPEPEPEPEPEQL
Description: (§1) FIG. 2: Binding affinity of the selected antibodies for lymphocytes. The ELISA assays were performed with mAbs used at increasing concentrations (7.5 nM, 25 nM, 50 nM, 100 nM) on activated hPBMCs (black curves) or untreated hPBMCs (grey curves).
(§2) Plates were then centrifuged, cell pellets were washed with PBS and incubated with HRP-conjugated anti-human IgG goat polyclonal antibody for 1 hour at room temperature. Following additional washes in PBS 1×, TMB reagent was added for 10 min before quenching with an equal volume of 1N HCl. Absorbance at 450 nm was measured by the Envision plate reader (Perkin Elmer, Waltham, Mass., USA).

[2] = biological target: T2, human LAG-3/Fc recombinant chimeric protein (R&D Systems) (human, UniProt P18627 23-450); assay: ELISA on coated recombinant LAG-3/Fc, mAb at increasing concentrations (apparent Kd, legend paragraph 26)
T2 construct: Bought from R&D Systems; also called rhLAG-3; recombinant protein/Fc
T2 sequence (looked up): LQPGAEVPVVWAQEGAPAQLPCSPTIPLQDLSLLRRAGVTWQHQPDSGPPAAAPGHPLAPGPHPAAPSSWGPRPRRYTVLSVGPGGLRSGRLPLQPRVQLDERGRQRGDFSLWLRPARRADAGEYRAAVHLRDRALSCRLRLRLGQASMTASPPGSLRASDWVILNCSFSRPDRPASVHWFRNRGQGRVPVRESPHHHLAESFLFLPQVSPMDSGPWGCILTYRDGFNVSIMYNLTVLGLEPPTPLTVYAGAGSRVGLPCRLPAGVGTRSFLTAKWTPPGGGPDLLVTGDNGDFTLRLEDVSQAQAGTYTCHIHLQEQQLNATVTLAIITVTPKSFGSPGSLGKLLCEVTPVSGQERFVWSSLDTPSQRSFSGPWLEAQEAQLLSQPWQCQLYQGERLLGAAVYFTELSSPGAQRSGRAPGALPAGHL
Description: as §1
(§3) To confirm the binding specificity of the purified mAbs, ELISA assays were performed on chimeric proteins (coated at 5 μg/ml), tumor cells (PD-L1-positive breast cancer MDA-MB-231 cells or PD-L1-negative breast cancer MCF7), and untreated or activated hPBMCs. The ELISA assays on coated chimeric protein were performed by coating Nunc™ flat-bottom 96-well plates (Fisher Scientific, Thermo Fisher Scientific) with 5 μg/ml […], […] and rhLAG-3 recombinant proteins in a solution of 0.05 M NaHCO₃ for 72 hours at 37° C. […] After extensive washes with PBS, the plates were incubated with (HRP)-conjugated anti-human IgG (Fab′)2 goat monoclonal antibody (Abcam, Cambridge, UK) for 1 hour, washed again and incubated with TMB reagent for 10 min before quenching with an equal volume of 1N HCl.

[3] = biological target: T3, human PD-1 on activated hPBMCs (human, UniProt Q15116 25-288); assay: cell ELISA on activated hPBMCs (apparent Kd, legend paragraph 26) [continued]
T3 construct: whole, on cells; also called cognate receptor expressed on hPBMCs
T3 sequence (Q15116 25-288): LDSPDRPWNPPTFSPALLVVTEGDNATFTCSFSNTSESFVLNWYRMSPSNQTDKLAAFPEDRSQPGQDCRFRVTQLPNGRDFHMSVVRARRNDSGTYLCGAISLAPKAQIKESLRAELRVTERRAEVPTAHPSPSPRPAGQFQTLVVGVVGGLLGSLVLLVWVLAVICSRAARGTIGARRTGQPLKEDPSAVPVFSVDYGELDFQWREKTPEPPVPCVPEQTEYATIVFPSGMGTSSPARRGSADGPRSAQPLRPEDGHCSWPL
Description: as §1, §2

[4] = biological target: T4, human PD-1/Fc recombinant chimeric protein (R&D Systems) (human, UniProt Q15116 25-167); assay: ELISA on coated recombinant PD-1/Fc, mAb at increasing concentrations (apparent Kd, legend paragraph 26) [continued]
T4 construct: Bought from R&D Systems; also called rhPD-1; recombinant protein/Fc
T4 sequence (Q15116 25-167, change not shown): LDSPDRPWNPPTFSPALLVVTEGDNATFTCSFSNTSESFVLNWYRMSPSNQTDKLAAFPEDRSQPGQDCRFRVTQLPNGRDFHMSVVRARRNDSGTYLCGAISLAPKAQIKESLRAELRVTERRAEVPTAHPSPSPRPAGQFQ
Description: as §1, §3

[5] = biological target: T5, human PD-L1 on cells (activated hPBMCs; MDA-MB-231 tumor cells) (human, UniProt Q9NZQ7 19-290); assay: cell ELISA on activated hPBMCs (apparent Kd, legend paragraph 26) [continued]
T5 construct: whole, on cells; also called PD-L protein
T5 sequence (Q9NZQ7 19-290): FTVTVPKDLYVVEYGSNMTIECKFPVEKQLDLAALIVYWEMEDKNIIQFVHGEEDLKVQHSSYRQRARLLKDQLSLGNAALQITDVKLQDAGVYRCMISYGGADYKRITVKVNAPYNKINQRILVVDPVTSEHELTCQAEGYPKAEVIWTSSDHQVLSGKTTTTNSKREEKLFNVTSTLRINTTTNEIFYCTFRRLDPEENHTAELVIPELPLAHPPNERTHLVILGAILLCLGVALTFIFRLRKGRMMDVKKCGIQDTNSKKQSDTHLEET
Description: as §1, §2

[6] = biological target: T5, human PD-L1 on cells (activated hPBMCs; …); assay: cell ELISA on MDA-MB-231 tumor cells expressing PD-L1 (apparent Kd) [continued]
Description: as §2

[7] = biological target: T6, human PD-L1/Fc recombinant chimeric protein (R&D Systems) (human, UniProt Q9NZQ7 19-239); assay: ELISA on coated recombinant PD-L1/Fc, mAb at increasing concentrations (apparent Kd, legend paragraph 26) [continued]
T6 construct: Bought from R&D Systems; also called recombinant protein/Fc
T6 sequence (Q9NZQ7 19-239, change not shown): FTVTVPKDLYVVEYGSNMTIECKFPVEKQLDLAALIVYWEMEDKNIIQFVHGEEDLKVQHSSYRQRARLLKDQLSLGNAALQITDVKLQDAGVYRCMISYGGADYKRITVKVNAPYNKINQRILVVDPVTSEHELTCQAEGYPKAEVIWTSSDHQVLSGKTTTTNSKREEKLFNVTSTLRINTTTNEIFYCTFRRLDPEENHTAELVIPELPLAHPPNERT
Description: as §1, §3

[8] = biological target: T5, human PD-L1 on cells (activated hPBMCs; …); assay: flow cytometry on hPBMCs activated with anti-CD3/CD28 beads, MFI against IgG concentration
Description: Human PBMCs isolated from healthy donors were activated with anti-CD3/CD28 beads to stimulate PD-L1 expression.
The human peripheral blood mononuclear cells (hPBMCs) isolated from healthy donors were thawed in RPMI 1640 medium (Gibco), supplemented with 2 mM L-glutamine, 10% (v/v) CTL wash supplement (CTL, Shaker Heights, Ohio, USA), 100 U/ml Benzonase (Merck Millipore, Burlington, Mass., United States). After centrifugation at 1200 rpm for 10 min, they were resuspended in complete RPMI medium supplemented with 10% (v/v) heat-inactivated fetal bovine serum (FBS, Sigma), 2 mM L-glutamine, 100 U/ml penicillin and 100 µg/ml streptomicin (Gibco), HEPES 10 mM (Gibco). After resting for 16 h at 37° C. in a humidified atmosphere with 5% CO2, hPBMCs were counted, resuspended at a concentration of 10\hat{ }6 viable cells/ml in complete RPMI medium (as above) and activated with Dynabeads Human T-Activator CD3/CD28 (Gibco), 25 μl beads/10\hat{ }6 viable cells. 24 h post activation, the cells were centrifuged and plated at 4×10\hat{ }5 cells/well in PBS in a 96 well plate with round bottom. After one wash in PBS, they were incubated with 50 μl LIVE/DEAD™ Fixable Violet Dead Cell Stain (Invitrogen) for 30 min at +4° C. and washed once again.

B5: PD-L1_B (antibody, V domains shown)
VH: QVQLVQSGAEVKKPGSSVEVSCKVSGNTVIGYAVSWVRQAPGQGPEWMGRLIPSVGLTNYAQKFQDRLTFTADTSTSTVTMALSSLTSEDTAMYYCARDVSPAVPVSQYWGQGTLVTVSS
VL: AQSVLTQPPSVSAAPGQKVIISCSGDSFNIGSHSVSWYKQLPGSAPKLLIYENNVRPSGIPDRFSGSKSGTSATLGITGLQTRDEADYYCGAWDSSLNGHWVFGGGTQLTVL
notes: also called mAb PD-L1_B
- Kd [5]: 0.1 nM
- Kd [6]: 0.74 nM
- Kd [7]: 0.46 nM

B6: PD-L1_E (antibody, V domains shown)
VH: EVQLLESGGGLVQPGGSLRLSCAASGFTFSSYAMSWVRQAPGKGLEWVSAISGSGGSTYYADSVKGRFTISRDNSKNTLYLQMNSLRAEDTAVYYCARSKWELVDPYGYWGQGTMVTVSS
VL: ANFMLTQPHSVSESPGKTITISCTRSSGSIAGNYVQWYQQRPGSAPIIVIYEDNQRPSGVPDRFSGSIDSSSNSASLTISRLKTEDEADYYCQSYEASNVVFGGGTKLTVL
notes: Tested as a mAb detected with anti-human IgG Fc
- binding result [8]: binds

B7: PD-L1_C (antibody, V domains shown)
VH: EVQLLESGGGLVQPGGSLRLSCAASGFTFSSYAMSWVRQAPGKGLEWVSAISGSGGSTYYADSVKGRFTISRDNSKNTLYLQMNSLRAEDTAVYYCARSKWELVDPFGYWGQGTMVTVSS
VL: ANFMLTQPHSVSESPGKTITISCTRSSGSIAGNYVQWYQQRPGSAPIIVIYEDNQRPSGVPDRFSGSIDSSSNSASLTISRLKTEDEADYYCQSYEASNVVFGGGTKLTVL
notes: as for B6
- EC50 (read off the curve) [8]: ~2 nM

B8: PD-1_B (antibody, V domains shown)
VH: QVQLVQSGAEVKKPGASVKVSCKASGYTFTSYGISWVRQAPGQGLEWMGWISAYNGNTNYAQKLQGRVTMTTDTSTSTAYMELRSLRSDDTAVYYCARDFGSGSYYDLDYWGQGTMVTVSS
VL: ANFMLTQPHSVSESPGKTVTISCTGSSGSIASNYVQWYQQRPGSAPTTVIYEDNQRPSGVPDRFSGSIDSSSNSASLTISGLKTEDEADYYCQSYDSNNHWVFGGGTKLTVL
notes: also called mAb PD-1_B
- Kd [3]: 0.6 nM
- Kd [4]: 0.29 nM

The remaining lines, values ahead:

- Kd [1]: 2.6 nM
- Kd [2]: 52 nM
B1: LAG-3_C (antibody, human IgG4, V domains shown)
VH: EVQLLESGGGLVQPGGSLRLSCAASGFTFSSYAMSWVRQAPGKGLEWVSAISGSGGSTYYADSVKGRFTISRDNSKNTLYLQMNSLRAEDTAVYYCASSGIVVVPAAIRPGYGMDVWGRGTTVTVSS
VL: AQAVLTQPSSVSGAPGQRVTISCTGSSSNIGAGYDVHWYQQLPGTAPKLLIYGNNNRPSGVPDRFSGSKSGTSASLAITGLQPEDEADYYCQSYDFGLSRVFGGGTKLTVL
notes: also called mAb LAG-3_C

- Kd [1]: 19 nM
- Kd [2]: 24 nM
B2: LAG-3_D (antibody, V domains shown)
VH: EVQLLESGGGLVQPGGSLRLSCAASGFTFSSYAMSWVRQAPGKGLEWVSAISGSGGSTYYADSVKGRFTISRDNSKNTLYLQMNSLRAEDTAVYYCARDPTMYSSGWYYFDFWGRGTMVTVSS
VL: ALSYVLTQPPSVSEAPRQRVTISCSGSSSNIGNNAVNWYQQLPGKAPKLLIYYDDLLPSGVSDRFSGSKSGTSASLAISGLQSEDEADYYCATWDDSLNGQVFGTGTKLTVL

- Kd [1]: 6 nM
- Kd [2]: 38 nM
B3: LAG-3_A (antibody, human IgG4, V domains shown)
VH: EVQLLESGGGLVQPGGSLRLSCAASGFTFSSYAMSWVRQAPGKGLEWVSAISGSGGSTYYADSVKGRFTISRDNSKDTLYLQMNSLRAEDTAVYYCARDGPLYDISAGFVPISYYLDYWGQGTTVTVSS
VL: AQPVLTQPPSASGTPGQRVTISCSGSFSNIGSNYVFWYQQLPGTAPKLLISGNNQRPSGVPDRFSGSKSGTSASLAISGLRSQDEADYYCATWDDSLRGWVFGGGTKLTVL
notes: also called mAb LAG-3_A

- Kd [3]: 0.14 nM
- Kd [4]: 0.15 nM
B4: PD-1_A (antibody, V domains shown)
VH: QVQLQESGPGVVKPSGTLSLTCAISGGSIGSGGSIRSTRWWSWVRQSPGKGLEWIGEIYHSGSTNYNPSLKSRVTISLDKSRNHFSLRLNSVTAADTAVYYCARQDYGDSGDWYFDLWGKGTLVTVSS
VL: AQAVLTQPSSVSGAPGQRVTISCTGSSSNIGAGYDVHWYQQLPGTAPKLLIYGNNNRPSGVPDRFSGSKSGTSASLAITGLQTEDEADYYCQSYDNSLSGEVFGGGTKVTVL
notes: also called mAb PD-1_A; anti-PD-1 antibody PD-1_A
